In experiment [1] the target is T1, Human LILRB1 (D1-D2) fused to mouse IgG2a Fc (human).
T1 construct: also called truncated (D1-D2) version of the LILRB1 ecto-domain
Kind of experiment: summary table (ELISA); N = No. A general note: An ELISA detects its analyte on a solid surface through an enzyme-linked reagent.

Experiment [2] concerns the target T2, human LILRB1 ectodomain fused to mIgG2a Fc (human).
T2 construct: also called human LILRB1-mIgG2a; full length LILRB1 ectodomain
The experiment can be described thus: summary table (ELISA); Y = Yes.

Experiment [3] has as its target T3, Human LILRA2 ectodomain (human, UniProt Q8N149 24-449).
T3 construct: Recombinant protein from a commercial source
Kind of experiment: summary table (single point ELISA); N = No.

For experiment [4], the target named is LILRB4 recombinant, full-length ectodomain (LILRB4 17-257) (human, UniProt Q8NHJ6 22-257). Kind of experiment: summary table (single point ELISA); N = No.
Experiment [5] deals with LILRB5 recombinant, full-length ectodomain (LILRB5 18-456) (human, UniProt O75023 24-456). Kind of experiment: summary table (single point ELISA); N = No.
The target of experiment [6] is LILRA5 recombinant, full-length ectodomain (LILRA5 42-268) (human, UniProt A6NI73 42-268). The experiment can be described thus: summary table (single point ELISA); N = No.
The target in experiment [7] is T4, Human LILRA1 ectodomain (human, UniProt O75019 17-461).
T4 construct: Recombinant protein from a commercial source
Kind of experiment: multi-point ELISA, antigen coated, apparent EC50. The protocol:
(§1) FIG. 32. Binding of Clones 1-5 to selected LILR family members tested by multiple point ELISA. Recombinant LILRB1, LILRB2, LILRB3, LILRA1, LILRA3, LILRA4, and LILRA6, or irrelevant control protein were coated on the ELISA plates. The plates were then blocked with milk in PBST. Next, the plates were incubated with serial dilutions (12.5 nM to 0.02 nM) of Clones 1-5 (A-E). Bound antibodies were detected using HRP-conjugated anti-human Fc antibodies and the chromogenic substrate.
(§2) Binding of Clones 1-5 to selected LILR family members tested by multiple point ELISA. (FIG. 32) Recombinant LILRB1, LILRB2, LILRB3, LILRA1, LILRA3, LILRA4, LILRA6, or irrelevant control protein were coated on the ELISA plates. The plates were then blocked with milk in PBST. Next, the plates were incubated with serial dilutions (12.5 nM to 0.02 nM) of Clone 1-5 (A-E). Bound antibodies were detected using HRP-conjugated anti-human Fc antibodies and the chromogenic substrate.

The target in experiment [8] is T5, Human full length LILRA3 (human, UniProt Q8N6C8 24-439).
T5 construct: Commercial recombinant protein; also the parent of the LILRA3 peptide microarrays
The experiment can be described thus: multi-point ELISA, antigen coated, apparent EC50. The protocol: as §1, §2

For experiment [9], the target named is LILRB1 recombinant, full-length ectodomain (human, UniProt Q8NHL6 24-461). Kind of experiment: multi-point ELISA, antigen coated, apparent EC50. The protocol:
as §1, §2

The target in experiment [10] is LILRB2 recombinant, full-length ectodomain (LILRB2 22-458) (human, UniProt Q8N423 22-458). The experiment can be described thus: multi-point ELISA, antigen coated, apparent EC50. The protocol: as §1, §2
The target of experiment [11] is LILRB3 recombinant, full-length ectodomain (LILRB3 24-443) (human, UniProt O75022 24-443). Kind of experiment: multi-point ELISA, antigen coated, apparent EC50. The method, then:
as §1, §2

The target of experiment [12] is LILRA4 recombinant, full-length ectodomain (LILRA4 24-446) (human, UniProt P59901 24-446). The experiment can be described thus: multi-point ELISA, antigen coated, apparent EC50. The method, then: as §1, §2
Experiment [13] addresses LILRA6 recombinant, full-length ectodomain (LILRA6 24-447) (human, UniProt Q6PI73 24-447). The experiment can be described thus: multi-point ELISA, antigen coated, apparent EC50. The method, then:
as §1, §2

Experiment [14] concerns the target human LILRB1 (coated on plates in the competition ELISA) (human, UniProt Q8NHL6 24-461, limits assumed). The experiment can be described thus: competition ELISA on coated human LILRB1; competitor 5 nM biotinylated Antibody 2. The method, then: FIG. 33. Cross-competition between Antibody (Clone) 2 and other Abs in ELISA. Plates were coated with human LILRB1 and, after blocking, incubated with 5 nM of biotinylated Clone 2 and different concentrations of unlabelled Clones 1-5 and the Reference 1-3 Abs. Bound biotinylated Clone 2 was detected using HRP-conjugated streptavidin and a chromogenic substrate. Unlabelled Clone 2 competed its biotinylated counterpart with low nM IC₅₀, while Clones 1, 3, 4 and 5 each yielded IC₅₀ of about 10 nM. None of the Reference Abs, nor the isotype control, could compete with Antibody 2 up to 250 nM concentrations.
Antibodies 1 to 5 were all found to bind within the D3-D4 fragment of human LILRB1. To investigate if Antibody 2 binds to an epitope similar to or different from the epitope of the other Antibodies (and Reference Antibodies) a competitive ELISA was performed. Plates were coated with human LILRB1 and after blocking incubated with 5 nM of biotinylated Antibody 2 and different concentrations of each unlabelled Antibody 1-5 and the Reference Antibodies 1 to 3. Bound biotinylated Antibody 2 was detected using HRP-conjugated streptavidin and a chromogenic substrate. Unlabelled Antibody 2 competed its biotinylated counterpart with low nM IC₅₀, while Antibodies 1, 3, 4 and 5 yielded IC₅₀ about 10 nM. None of the Reference Abs nor the isotype control could compete with Antibody 2 up to 250 nM concentrations.

A word on the EC50: it is the concentration that produces a half-maximal response. By IC50 is commonly meant the concentration at which inhibition is half-maximal. A high value points to a need for much substance.

LILRA4 recombinant, full-length ectodomain (LILRA4 24-446), sequence (P59901 24-446): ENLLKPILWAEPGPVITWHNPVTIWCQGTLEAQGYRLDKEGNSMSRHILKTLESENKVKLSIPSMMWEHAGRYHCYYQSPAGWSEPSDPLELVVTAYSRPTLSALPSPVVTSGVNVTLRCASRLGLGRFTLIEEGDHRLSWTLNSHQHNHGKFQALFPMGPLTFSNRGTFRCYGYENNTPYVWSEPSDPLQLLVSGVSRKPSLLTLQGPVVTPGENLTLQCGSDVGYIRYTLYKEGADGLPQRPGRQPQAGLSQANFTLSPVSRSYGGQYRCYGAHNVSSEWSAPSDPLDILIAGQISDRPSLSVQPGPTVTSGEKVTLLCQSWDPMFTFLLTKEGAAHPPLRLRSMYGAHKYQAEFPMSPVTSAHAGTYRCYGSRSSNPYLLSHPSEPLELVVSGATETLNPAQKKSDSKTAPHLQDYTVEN
LILRB2 recombinant, full-length ectodomain (LILRB2 22-458), sequence (Q8N423 22-458): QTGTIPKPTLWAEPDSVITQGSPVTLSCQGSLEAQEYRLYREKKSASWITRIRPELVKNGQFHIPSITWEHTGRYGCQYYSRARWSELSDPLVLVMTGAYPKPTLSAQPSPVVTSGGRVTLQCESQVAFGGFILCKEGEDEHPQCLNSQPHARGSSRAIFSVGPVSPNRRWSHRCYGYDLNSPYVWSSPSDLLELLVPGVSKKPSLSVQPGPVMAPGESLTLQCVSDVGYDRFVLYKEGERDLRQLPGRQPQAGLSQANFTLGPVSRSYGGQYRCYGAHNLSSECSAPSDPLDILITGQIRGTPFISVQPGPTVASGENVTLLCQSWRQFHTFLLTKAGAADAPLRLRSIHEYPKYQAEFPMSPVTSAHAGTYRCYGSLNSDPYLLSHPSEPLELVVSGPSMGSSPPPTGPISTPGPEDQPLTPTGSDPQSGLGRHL
T3 sequence (Q8N149 24-449 S135L): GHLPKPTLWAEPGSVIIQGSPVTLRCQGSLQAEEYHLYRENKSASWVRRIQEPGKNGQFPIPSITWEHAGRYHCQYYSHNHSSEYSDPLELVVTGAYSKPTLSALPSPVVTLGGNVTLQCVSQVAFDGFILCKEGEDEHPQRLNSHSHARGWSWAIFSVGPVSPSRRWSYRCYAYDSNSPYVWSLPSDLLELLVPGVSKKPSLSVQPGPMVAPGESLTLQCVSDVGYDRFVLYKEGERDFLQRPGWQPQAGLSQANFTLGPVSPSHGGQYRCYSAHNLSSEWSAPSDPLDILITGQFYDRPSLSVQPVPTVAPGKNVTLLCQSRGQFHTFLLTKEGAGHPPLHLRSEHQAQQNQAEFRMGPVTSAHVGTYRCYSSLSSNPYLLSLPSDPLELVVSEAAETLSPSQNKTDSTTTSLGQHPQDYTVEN
LILRB3 recombinant, full-length ectodomain (LILRB3 24-443), sequence (O75022 24-443): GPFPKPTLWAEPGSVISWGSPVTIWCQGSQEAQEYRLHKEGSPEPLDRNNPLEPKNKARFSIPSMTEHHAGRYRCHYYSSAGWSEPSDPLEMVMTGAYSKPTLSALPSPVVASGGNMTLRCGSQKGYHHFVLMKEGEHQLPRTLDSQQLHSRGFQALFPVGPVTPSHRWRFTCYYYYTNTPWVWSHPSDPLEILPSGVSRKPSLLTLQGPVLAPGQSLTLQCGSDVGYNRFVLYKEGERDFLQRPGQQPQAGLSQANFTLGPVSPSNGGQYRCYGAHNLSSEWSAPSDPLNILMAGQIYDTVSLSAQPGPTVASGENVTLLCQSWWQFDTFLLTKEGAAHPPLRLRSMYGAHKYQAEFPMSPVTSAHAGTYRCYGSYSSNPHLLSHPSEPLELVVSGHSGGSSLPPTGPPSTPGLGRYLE
T1 sequence (chain, as listed by the source limits assumed): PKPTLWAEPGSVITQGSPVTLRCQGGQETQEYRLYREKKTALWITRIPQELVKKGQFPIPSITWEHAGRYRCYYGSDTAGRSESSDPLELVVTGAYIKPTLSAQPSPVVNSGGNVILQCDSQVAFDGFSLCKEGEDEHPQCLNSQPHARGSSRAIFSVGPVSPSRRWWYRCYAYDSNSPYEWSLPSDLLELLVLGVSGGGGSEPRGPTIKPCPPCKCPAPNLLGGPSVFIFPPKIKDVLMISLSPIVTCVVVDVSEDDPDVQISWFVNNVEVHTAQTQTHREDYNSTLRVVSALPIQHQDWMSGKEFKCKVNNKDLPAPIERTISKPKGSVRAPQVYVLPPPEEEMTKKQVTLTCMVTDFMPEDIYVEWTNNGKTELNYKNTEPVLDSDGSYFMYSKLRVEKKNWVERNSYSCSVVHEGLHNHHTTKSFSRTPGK
human LILRB1 (coated on plates in the competition ELISA), sequence (Q8NHL6 24-461 limits assumed): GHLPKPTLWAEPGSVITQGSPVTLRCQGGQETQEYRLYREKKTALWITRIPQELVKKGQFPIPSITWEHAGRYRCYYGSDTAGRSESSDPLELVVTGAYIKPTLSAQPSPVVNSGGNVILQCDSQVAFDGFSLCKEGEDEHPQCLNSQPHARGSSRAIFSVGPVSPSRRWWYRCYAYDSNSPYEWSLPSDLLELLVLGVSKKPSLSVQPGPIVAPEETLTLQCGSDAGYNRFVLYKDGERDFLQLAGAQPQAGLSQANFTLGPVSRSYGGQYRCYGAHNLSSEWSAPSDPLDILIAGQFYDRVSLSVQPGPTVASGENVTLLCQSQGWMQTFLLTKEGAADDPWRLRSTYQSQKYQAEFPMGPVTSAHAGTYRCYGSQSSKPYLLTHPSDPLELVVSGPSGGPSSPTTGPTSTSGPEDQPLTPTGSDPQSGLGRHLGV
LILRB1 recombinant, full-length ectodomain, sequence (Q8NHL6 24-461 limits assumed): as above
LILRA5 recombinant, full-length ectodomain (LILRA5 42-268), sequence (A6NI73 42-268): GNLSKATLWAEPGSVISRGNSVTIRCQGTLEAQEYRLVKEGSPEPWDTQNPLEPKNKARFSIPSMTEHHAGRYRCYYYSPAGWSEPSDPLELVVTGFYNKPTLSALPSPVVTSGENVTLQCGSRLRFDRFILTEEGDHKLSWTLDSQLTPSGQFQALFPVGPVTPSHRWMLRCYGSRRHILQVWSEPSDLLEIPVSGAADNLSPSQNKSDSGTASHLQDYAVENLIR
T5 sequence (Q8N6C8 24-439 A105V limits assumed): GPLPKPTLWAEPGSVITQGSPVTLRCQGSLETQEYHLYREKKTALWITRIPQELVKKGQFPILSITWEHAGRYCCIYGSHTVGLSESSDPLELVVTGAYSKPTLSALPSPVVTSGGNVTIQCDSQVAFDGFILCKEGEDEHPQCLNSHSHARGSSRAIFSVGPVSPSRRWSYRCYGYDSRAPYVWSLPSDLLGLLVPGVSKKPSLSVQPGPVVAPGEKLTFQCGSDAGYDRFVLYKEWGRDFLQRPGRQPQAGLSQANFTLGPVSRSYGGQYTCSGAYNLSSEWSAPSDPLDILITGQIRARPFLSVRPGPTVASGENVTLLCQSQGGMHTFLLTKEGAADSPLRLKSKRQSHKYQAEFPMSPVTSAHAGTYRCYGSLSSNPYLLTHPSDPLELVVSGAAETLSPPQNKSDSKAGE
T2 sequence (chain, as listed by the source limits assumed): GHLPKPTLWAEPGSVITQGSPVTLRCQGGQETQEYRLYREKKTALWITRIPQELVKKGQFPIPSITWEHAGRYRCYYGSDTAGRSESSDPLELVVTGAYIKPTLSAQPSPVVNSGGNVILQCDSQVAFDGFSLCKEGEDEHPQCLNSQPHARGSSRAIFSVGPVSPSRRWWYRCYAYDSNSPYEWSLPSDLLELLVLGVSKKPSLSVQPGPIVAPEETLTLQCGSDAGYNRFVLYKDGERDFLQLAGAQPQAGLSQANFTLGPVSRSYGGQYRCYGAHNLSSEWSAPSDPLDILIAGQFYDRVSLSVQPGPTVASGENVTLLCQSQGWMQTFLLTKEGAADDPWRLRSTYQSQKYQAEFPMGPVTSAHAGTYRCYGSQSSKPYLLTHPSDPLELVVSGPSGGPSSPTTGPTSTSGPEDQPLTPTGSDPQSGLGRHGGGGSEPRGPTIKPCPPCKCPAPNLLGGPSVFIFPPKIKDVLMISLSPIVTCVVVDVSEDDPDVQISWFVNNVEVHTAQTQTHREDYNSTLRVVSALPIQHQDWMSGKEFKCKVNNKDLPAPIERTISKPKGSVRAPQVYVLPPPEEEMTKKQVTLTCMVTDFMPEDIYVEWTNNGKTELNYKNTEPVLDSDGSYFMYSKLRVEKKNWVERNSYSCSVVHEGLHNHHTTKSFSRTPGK
LILRA6 recombinant, full-length ectodomain (LILRA6 24-447), sequence (Q6PI73 24-447): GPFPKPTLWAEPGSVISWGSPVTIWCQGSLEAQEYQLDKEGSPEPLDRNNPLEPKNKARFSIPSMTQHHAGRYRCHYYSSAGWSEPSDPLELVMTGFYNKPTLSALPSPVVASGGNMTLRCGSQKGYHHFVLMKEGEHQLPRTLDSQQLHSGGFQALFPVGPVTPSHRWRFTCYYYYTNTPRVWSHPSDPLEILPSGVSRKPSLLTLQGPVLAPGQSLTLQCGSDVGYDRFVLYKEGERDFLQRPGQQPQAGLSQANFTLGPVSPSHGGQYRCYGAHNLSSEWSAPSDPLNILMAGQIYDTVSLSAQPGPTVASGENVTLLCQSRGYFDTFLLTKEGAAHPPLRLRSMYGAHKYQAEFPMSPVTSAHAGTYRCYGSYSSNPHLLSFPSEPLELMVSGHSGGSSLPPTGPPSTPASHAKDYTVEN
T4 sequence (O75019 17-461): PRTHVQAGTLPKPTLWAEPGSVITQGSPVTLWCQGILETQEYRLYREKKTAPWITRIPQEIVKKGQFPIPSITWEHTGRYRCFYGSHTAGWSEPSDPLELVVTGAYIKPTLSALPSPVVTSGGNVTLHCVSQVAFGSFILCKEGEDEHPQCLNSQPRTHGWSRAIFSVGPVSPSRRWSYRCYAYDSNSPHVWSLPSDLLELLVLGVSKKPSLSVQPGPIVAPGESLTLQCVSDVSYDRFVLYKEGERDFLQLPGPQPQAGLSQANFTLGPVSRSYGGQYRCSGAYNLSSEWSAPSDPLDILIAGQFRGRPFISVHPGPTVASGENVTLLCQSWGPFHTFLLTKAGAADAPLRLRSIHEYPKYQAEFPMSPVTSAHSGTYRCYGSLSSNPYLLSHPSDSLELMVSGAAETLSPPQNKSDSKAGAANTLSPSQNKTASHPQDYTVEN

B1: Antibody 5 (antibody, V domains shown)
VH: QVQLVESGGGLVKPGGSLRLSCAASGFTFSDYYMTWIRQAPGKGLEWVSYISISGITRYYADSVKGRFTISRDNAKNSLYLQMNSLRAEDTAVYYCARDQTGYFDYWGQGTLVTVSS
VL: DIVMTQSPATLSVSPGEKTTLSCRASQSFSSNLAWYQQKPGQAPRLLIYGASTRATGIPARFSGSGSGTEFTLTISSLQSEDFAVYYCQQYINWPHTFGQGTKVEIK
notes: Fully human antibody; IgG4; also called Clone 5; Antibody Clone 5
In the case of B1, the binding result in experiment [1] is listed as “no binding”; in experiment [2] it was “binds”; in [3], “no binding (tested: 1 nM)”; in [4], “no binding (tested: 1 nM)”; in experiment [5], “no binding (tested: 1 nM)”; in experiment [6] it was “no binding (tested: 1 nM)”. For the same molecule, the EC50 was 9.07 nM in experiment [7]; 1.26 nM in experiment [8]; 0.99 nM in experiment [9]; 1.04 nM in experiment [10]; 0.99 nM in experiment [11]; 0.84 nM in [12]. Moreover, the EC50 in experiment [13] amounted to 0.97 nM. Also, the IC50 in experiment [14] was about 10 nM.

B2: Antibody 3 (antibody, V domains shown)
VH: QVQLVQSGAEVKKPGASVKVSCKASGYTFTSYGISWVRQAPGQGLEWMGWISAYNGNTNYAQKLQGRVTMTTDTSTSTAYMELRSLRSDDTAVYYCARSYSGSHWWFDPWGQGTLVTVSS
VL: not shown
notes: Fully human antibody; IgG4; also called Clone 3; Antibody Clone 3
B2: the binding result is “no binding” in experiment [1]; “binds” in [2]; “no binding (tested: 1 nM)” in experiment [3]; “no binding (tested: 1 nM)” in [4]; “no binding (tested: 1 nM)” in [5]; “no binding (tested: 1 nM)” in experiment [6]. In addition, the EC50 in [7] is 1.76 nM; in experiment [8], 1.2 nM; in experiment [9], 1.38 nM; in experiment [10], 1.28 nM; in experiment [11], 1.75 nM; in experiment [12], 1.15 nM. In addition, in [13], the concentration giving a half-maximal response (EC50) was determined as 1.69 nM. Further, in experiment [14], the IC50 was about 10 nM.

B3: Antibody 4 (antibody, V domains shown)
VH: QVQLVQSGAEVKKPGASVKVSCKASGYTFTSYGISWVRQAPGQGLEWMGWISAYNGNTNYAQKLQGRVTMTTDTSTSTAYMELRSLRSDDTAVYYCARSYSGSYWWFDPWGQGTLVTVSS
VL: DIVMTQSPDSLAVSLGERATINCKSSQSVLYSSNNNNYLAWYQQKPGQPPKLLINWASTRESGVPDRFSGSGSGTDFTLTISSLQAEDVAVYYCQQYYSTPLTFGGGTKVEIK
notes: Fully human antibody; IgG4; also called Clone 4; Antibody Clone 4
In the case of B3, the binding result in experiment [1] is given as “no binding”; in experiment [2] it was “binds”; in experiment [3] it was “no binding (tested: 1 nM)”; in [4] it was “no binding (tested: 1 nM)”; in experiment [5], “no binding (tested: 1 nM)”; in [6] it was “no binding (tested: 1 nM)”. The EC50 in experiment [7] amounted to 4.1 nM; in experiment [8], 1.42 nM; in experiment [9], 1.24 nM; in experiment [10] it was 1.39 nM; in [11] it was 1.38 nM; in [12] it was 1.38 nM. Also, in [13], the half-maximal effective concentration (EC50) turned out to be 2.2 nM. Besides, the half-maximal inhibitory concentration (IC50) in [14] was about 10 nM.

B4: Antibody 1 (antibody, V domains shown)
VH: QVQLVESGGGLVKPGGSLRLSCAASGFTFSDYYMSWIRQAPGKGLEWVSYISSSGSIKKYADSVKGRFTISRDNAKNSLYLQMNSLRGEDTAVYYCARTNWHFDYWGQGTLVTVSS
VL: EIVLTQSPGTLSLSPGERATLSCRASQSVSSSYLAWYQQKPGQAPRLLIFGASTRATGIPDRFSGSGSGTDFTLTISRLEPEDVAVYYCQQYYSTPFTFGPGTKVDIK
notes: Fully human antibody expressed in CHO; also called Clone 1; Antibody Clone 1
In the case of B4, the binding result in experiment [1] is on record as “no binding”; in [2], “binds”; in experiment [3], “no binding (tested: 1 nM)”; in [4], “no binding (tested: 1 nM)”; in experiment [5], “no binding (tested: 1 nM)”; in experiment [6], “no binding (tested: 1 nM)”. Besides, the EC50 stood at 2.38 nM in [7]; 0.97 nM in experiment [8]; 0.55 nM in experiment [9]; 0.73 nM in experiment [10]; 2 nM in experiment [11]; 0.81 nM in [12]. The concentration giving a half-maximal response (EC50) in experiment [13] came out at 1.81 nM. The molecule also came in with an IC50 in [14] of about 10 nM.

These data come from patent publication US20250197491A1 (MACOMICS, published 2025).
